Laboratory results taken from patent US20250277790A1.

Legend:
[1] = biological target: L834R EGFR tagged with mTurquoise at the C-terminus, in plasma membrane-derived vesicles from transfected CHO cells (human) (UniProt P00533); experiment: cell-based or functional assay
[2] = biological target: human EGFR tagged with the fluorescent protein mTurquoise at the C-terminus (wild-type), in plasma membrane-derived vesicles from transfected CHO cells (human) (UniProt P00533); experiment: cell-based or functional assay

Sequence of Epiregulin (1195EP025 CF, R&D Systems) (O14944 63-108 limits assumed): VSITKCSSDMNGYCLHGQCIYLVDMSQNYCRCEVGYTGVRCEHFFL

EC50 of Y1068 phosphorylation per EGFR molecule [1] [nM] | EC50 of Y1173 phosphorylation per EGFR molecule [1] [nM] | Etop of Y1068 phosphorylation per EGFR molecule [1] | Etop of Y1173 phosphorylation per EGFR molecule [1] | EC50 of Y1068 phosphorylation per EGFR molecule [2] [nM] | EC50 of Y1173 phosphorylation per EGFR molecule [2] [nM] | Etop of Y1068 phosphorylation per EGFR molecule [2] | Etop of Y1173 phosphorylation per EGFR molecule [2] | βlig (Y1068 vs Y1173), lig vs rho-mEGF [2] | Substance
5.8 | 0.7 | 0.2 | 0.09 | 19.5 | 16.2 | 0.43 | 0.16 | -0.23 | Epiregulin (1195EP025 CF, R&D Systems) (from UniProt O14944 63-108) (ligand)
3.2 | 0.3 | 0.17 | 0.12 | 3.4 | 5.2 | 0.59 | 0.17 | 0.13 | TGFα (239A100, R&D Systems) (from UniProt P01135 40-89) (ligand)
